132 substances from the supplement of paper PMC12042874 can be followed below.

± gives the uncertainty stated by the source.

This data set is described as follows: amyloid nucleation score (Sup35N fusion, yeast selection) (log enrichment); library NNK3; higher = more nucleation; inactive = no reads after selection. Summed up:
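Sup35N fusions to peptides of 20 random codons were expressed in psi-negative yeast, induced 24 hours with 100 μM copper sulfate, and grown 7 days at 30°C on medium lacking adenine and uracil. Input and output plasmid inserts were sequenced by Illumina. The nucleation score is the DiMSum log enrichment of output over input reads, centred on the mode score of non-aggregating sequences. Sequences with under 100 input reads were excluded.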
For the substance AAEPEVDNSYTAGDSGTRGT, the amyloid nucleation score entry is “inactive”.

On to AALTPNPGVD, for which the amyloid nucleation score result is “inactive”.

AANPFFTIYHLVRSYNVCRW: the amyloid nucleation score result is “inactive”.

For the substance AAVSGDVTM, the amyloid nucleation score result was “inactive”.

On to ACIFNLGGVHRCICCVLFNI, for which the amyloid nucleation score entry is “inactive”.

Take ACLSFVYALYPLCLRLIS: the amyloid nucleation score result was “inactive”.

In the case of ADFDDHDYLVMCDWWINMHS, the amyloid nucleation score entry was “inactive”.

ADIDLVGVDCPWCGGLESFP gave an amyloid nucleation score of -0.342 ± 1.2.

For ADKRSMMWKFMFSRFCGRVT, the amyloid nucleation score entry was “inactive”.

Consider ADRMDGDSTGFYSTNLRGYS, for which the amyloid nucleation score entry is “inactive”.

For ADVNTL, the amyloid nucleation score entry is “inactive”.

With AESIR, the amyloid nucleation score result was “inactive”.

For the substance AEWGFVGGIYWYLRKVPRSH, the amyloid nucleation score result was “inactive”.

Consider AFFTFGAPCIQDNESGDRGG, for which the amyloid nucleation score result is “inactive”.

AFIRFTVFNIGVKKYSCL: the amyloid nucleation score came out at 1.55 ± 0.065.

Regarding AFKDNNDCLEHCCRRVTDLV, the amyloid nucleation score entry is “inactive”.

In turn, AFLPMCGLDFKWRYV returned an amyloid nucleation score of -0.22 ± 1.4.

Turning to AFPCFIVY, the amyloid nucleation score entry is “inactive”.

For AFSKRSSWNNHFICVNDVVQ, the amyloid nucleation score result is “inactive”.

For the substance AGGSVYKIVEFSCLLFNQKY, the amyloid nucleation score entry is “inactive”.

As to AGPVF, the amyloid nucleation score entry was “inactive”.

As for AGQFPREQ, the amyloid nucleation score result was “inactive”.

Regarding AGVDWQILV, the amyloid nucleation score entry was “inactive”.

In the case of AHFFVCCALSDRCRLRDVLQ, the amyloid nucleation score entry was “inactive”.

Take AHGTMGGNYGRNVQLDDRLN: the amyloid nucleation score entry was “inactive”.

Consider AHLQVYFSSNVC, for which the amyloid nucleation score entry was “inactive”.

Regarding AHVALR, the amyloid nucleation score entry was “inactive”.

In the case of AIDLKLAKSEWGWSALGWFL, the amyloid nucleation score entry is “inactive”.

For AIEQSLDWF, the amyloid nucleation score result was “inactive”.

In turn, AILCTIVCNASWAEEQSA gave an amyloid nucleation score of 1.09 ± 0.17.

Regarding AIMLVSLC, the amyloid nucleation score result is “inactive”.

On to AIRPKSGAWSHLCYASIG, for which the amyloid nucleation score entry is “inactive”.

AISYYYEHARLGWYGVELRP: the amyloid nucleation score entry was “inactive”.

Consider AIYKGSWEPFGIDA, for which the amyloid nucleation score entry is “inactive”.

Take AKFSGVLKAYAVREATYCLG: the amyloid nucleation score result is “inactive”.

The substance AKHGLVDAQRALGISYQKNK came in with an amyloid nucleation score of 0.967 ± 0.11.

ALFSKKFI showed an amyloid nucleation score of 1.83 ± 0.059.

Take ALMLDIFGRCTLRFRISGHG: the amyloid nucleation score entry is “inactive”.

Turning to ALNDLLAYSLSSKSFSYNWI, the amyloid nucleation score result is “inactive”.

In the case of ALQYGNHRGCSYGCMITFVR, the amyloid nucleation score result is “inactive”.

As for ALVLNLDRVWVSLTDGPWSD, the amyloid nucleation score result is “inactive”.

In the case of ALVVSTWYSPGDMDLTPLHW, the amyloid nucleation score entry is “inactive”.

As to ALWWKRGVNMRNPSETRLAM, the amyloid nucleation score result is “inactive”.

For AMEEDIYLTNDYTIIM, the amyloid nucleation score was determined as 0.45 ± 0.39.

AMGLACGLDGSAVFGCMLTT: the amyloid nucleation score entry was “inactive”.

In the case of AMVKEFWVDSRHFIDRYSKC, the amyloid nucleation score entry was “inactive”.

ANAFTGIRCVQVRRRCSLDM: the amyloid nucleation score entry is “inactive”.

As to ANCCYPDLSCYVLYCGSSCL, the amyloid nucleation score worked out at 2.41 ± 0.076.

Consider ANGLLSFSGRADGLQTNSGC, for which the amyloid nucleation score result is “inactive”.

For ANGRN, the amyloid nucleation score result was “inactive”.

Take ANHDVLADVCRLSRRGVLRR: the amyloid nucleation score result is “inactive”.

For the substance ANHNLYRDDDREYFFMLCY, the amyloid nucleation score entry is “inactive”.

ANLRSLTR: the amyloid nucleation score entry was “inactive”.

ANPGG displayed an amyloid nucleation score of -1.05 ± 2.5.

For the substance ANSNRRECQHNS, the amyloid nucleation score is 1.06 ± 0.16.

For the substance ANSNVGSLF, the amyloid nucleation score result was “inactive”.

On to ANVARFMYSFVKQALSLWVR, for which the amyloid nucleation score result was “inactive”.

APFCVRGSWELRQVFRM: the amyloid nucleation score was -0.13 ± 0.77.

AQILYYLYYT: the amyloid nucleation score result was “inactive”.

Take ARCECESSTRVSSLVYLSRE: the amyloid nucleation score result is “inactive”.

For the substance ARHSCA, the amyloid nucleation score entry was “inactive”.

Regarding ARICVRAFKETCDYKLGCST, the amyloid nucleation score stood at 0.052 ± 0.66.

Turning to ARIDCGSVELKECDLRPDYG, the amyloid nucleation score result is “inactive”.

For the substance ARWNAI, the amyloid nucleation score entry is “inactive”.

For ARWTMRAMLDWSIALSDHWV, the amyloid nucleation score result is “inactive”.

Take ASCAWNGWTLIFLFYRCYFQ: the amyloid nucleation score entry is “inactive”.

As for ASCPLSKKWMELGKCAGPTH, the amyloid nucleation score entry is “inactive”.

Regarding ASDTVTCFAYAVKGLRRASG, the amyloid nucleation score result was “inactive”.

For ASILEFPRSTKSTSLGRSGR, the amyloid nucleation score result is “inactive”.

In turn, ASLRWVLRLCRNLHTSSMET registered an amyloid nucleation score of -0.824 ± 1.5.

Consider ASLTGNFYTGWRFLALATMC, for which the amyloid nucleation score result was “inactive”.

ASMLALCVLMHRLEPIRSFN: the amyloid nucleation score turned out to be 0.64 ± 0.2.

Take ASRSMTGSLCLFAFMV: the amyloid nucleation score result was “inactive”.

Regarding ASTEKGGPNDGTCWYPYCTA, the amyloid nucleation score entry was “inactive”.

Consider ASTMDW, for which the amyloid nucleation score result is “inactive”.

On to ATCWDEYDPRDPLA, for which the amyloid nucleation score entry was “inactive”.

For the substance ATIIPICSHLIDHSVSLDQG, the amyloid nucleation score result is “inactive”.

AVCFRVLCFKLLTT: the amyloid nucleation score entry was “inactive”.

In the case of AVCYRLWFKM, the amyloid nucleation score entry was “inactive”.

For the substance AVISKDCDSYAIYHHVFHST, the amyloid nucleation score entry was “inactive”.

Take AVLCELVQDMFSLGVYVCHE: the amyloid nucleation score came out at 0.531 ± 0.32.

With AVLCVCIHRLPFYFPPLLKM, the amyloid nucleation score result is “inactive”.

Substance AVLWIVSGGTYESVDLNYWC displayed an amyloid nucleation score of 0.837 ± 0.13.

In the case of AVMDGRNMSYSMYIRCCMWL, the amyloid nucleation score worked out at 2.7 ± 0.074.

As to AVMWYIPRDG, the amyloid nucleation score result was “inactive”.

AVMYSCQYRDKWVEVAMVTS: the amyloid nucleation score entry is “inactive”.

AVNFCMLWGVYASSQKNLGF came in with an amyloid nucleation score of 0.585 ± 0.32.

For the substance AVSRDCELYKVEYYLVQ, the amyloid nucleation score entry is “inactive”.

Take AVTDTNLLLFDVGYESLVHS: the amyloid nucleation score result is “inactive”.

Turning to AVTFTHRFSRISPCHRRRWK, the amyloid nucleation score came out at 1.16 ± 0.1.

With AVWTCIGWDERTKMLYKFIR, the amyloid nucleation score entry was “inactive”.

In the case of AWELEKTTYRRGRAIVVHTP, the amyloid nucleation score result is “inactive”.

With AWFVEKLLCDLHSPSAVGAG, the amyloid nucleation score is -0.565 ± 1.5.

Turning to AWHCLDYYRSGSVIDRRVGM, the amyloid nucleation score result is “inactive”.

In turn, AWKTFFVIYSS yielded an amyloid nucleation score of 0.406 ± 0.19.

Regarding AWNLS, the amyloid nucleation score result was “inactive”.

In the case of AWSLVGMHAVNNFHLKQEFL, the amyloid nucleation score result was “inactive”.

With AWTIRGQA, the amyloid nucleation score result is “inactive”.

As to AWYKFVGRVMRDPYMEARLA, the amyloid nucleation score result was “inactive”.

Regarding AYFIPYNTWFYKKGMARQFF, the amyloid nucleation score entry is “inactive”.

As for AYMYCVMTGSWVVKIRPGTR, the amyloid nucleation score result is “inactive”.

On to AYSSVLINLSEYTLGIAVPM, for which the amyloid nucleation score turned out to be 0.062 ± 0.75.

Regarding CAVALLNHRG, the amyloid nucleation score result is “inactive”.

In the case of CAVYCNLNDVIGVFTILQRS, the amyloid nucleation score result is “inactive”.

Take CAYRLNVGSVRFGKMHPRRS: the amyloid nucleation score entry is “inactive”.

Turning to CAYVENSCGTILVCALYCGS, the amyloid nucleation score result was “inactive”.

Consider CCCTNDMWTTGPNCS, for which the amyloid nucleation score is -0.432 ± 0.76.

Substance CCFTLGAVSNCSLRGNSQTL showed an amyloid nucleation score of -1.2 ± 1.9.

Take CCMYMISCRDN: the amyloid nucleation score entry is “inactive”.

On to CCQLGESTENGLFSDDWRCE, for which the amyloid nucleation score entry was “inactive”.

In the case of CCVCLCACRLFCSIVADYRR, the amyloid nucleation score result is “inactive”.

Consider CCWRNLYSFLRKGSYSRCM, for which the amyloid nucleation score result was “inactive”.

On to CDAWILFFWHVVNISYRVDK, for which the amyloid nucleation score entry was “inactive”.

For the substance CDFALCSRWQVVYVKKQGQW, the amyloid nucleation score came to 2.1 ± 0.07.

Take CDIPFF: the amyloid nucleation score result was “inactive”.

In turn, CDSWAYCRGCFRFML gave an amyloid nucleation score of -0.092 ± 1.1.

On to CDTSFKIDELPYSASLHFAF, for which the amyloid nucleation score result is “inactive”.

As to CDVCNM, the amyloid nucleation score result is “inactive”.

On to CDVHTGRCDSCYTGNSTKFG, for which the amyloid nucleation score entry was “inactive”.

Turning to CDVLYRILRYIYSGKLLFSE, the amyloid nucleation score entry is “inactive”.

On to CDVPAKYLGKICDSYALSIF, for which the amyloid nucleation score entry was “inactive”.

Substance CECVGFRSRYM yielded an amyloid nucleation score of 0.038 ± 0.3.

Take CEGMKCYVVLTRLRLKKTRT: the amyloid nucleation score result was “inactive”.

In turn, CEISLV came in with an amyloid nucleation score of 0.767 ± 0.16.

CELLCFTGLSDYNTGSGVRR: the amyloid nucleation score result is “inactive”.

CEMVCSTVIPIEVTSWLVMV: the amyloid nucleation score result was “inactive”.

Take CEVHEGWIA: the amyloid nucleation score result is “inactive”.

Substance CFANSSYLIGTCLRCACNDR displayed an amyloid nucleation score of 2.37 ± 0.072.

In the case of CFFIVGLARIFGLVPVA, the amyloid nucleation score is 0.804 ± 0.12.

On to CFIVQWMLTLMCVFANCILT, for which the amyloid nucleation score entry is “inactive”.

As to CFKPILDLGSKCLFVLVVGK, the amyloid nucleation score entry was “inactive”.

Turning to CFLCFTPHSFHVCSI, the amyloid nucleation score result was “inactive”.
